In the DeepSol protein solubility set:

assay: soluble on expression in E. coli; label from the status in PepcDB or PDB records

| Sequence | soluble on expression in E. coli |
| --- | --- |
| MGSDKIHHHHHHMKTLKNLITSKHQTKASRFLGYLMPFDDFEKTLLQLKKEHFKAAHFVTAFRYSLEGKITEGFSDDGEPKGSSGMPMLSVLRREDLINIGLVSVRYFGGTLLGVGGLMKAYAKSALLCVENAQKEDALKDFVELETLSAHYSYKELDALQREIKKFSLQLSKKNFSNQSVEVEISGTRENLQAFLQQNKIN | not soluble |
| MGSDKIHHHHHHMKTLQTHRVLQALIGHFTPFLESGITELMINTEQELWLYKVNNTREKRGHALFDKAFLLRFCEQLASFRGLFFDEEHPTLNCSIPFTRYRVSANHFSITTNNQITLNIRVPRLKPLSLEDFTFKASDPKSLKDLALKGHNILISGETSSGKTSLLNALLDCVNKDERVVSVEDSQELDLKAFSNCVGLLVGKQENTRFNYEDALNMAMRLNPDRLIVGEIDTRNAALFLRLGNTGHKGMLSTIHANSAQNTLEALSLNLSMRYMYSLDKDLMRAYFKSAIDVIVHVNRINNERQIAEVLWTKEL | not soluble |
| MGSDKIHHHHHHMKVAIVIHDLKGGGAEKMMMRLANAISKQHHEVDLVLLTNGGTNKDLLDNGVNLIELNSLRTASSVPRLRQYLKINSPDRVLSALTHVNVITFIACLSLGWLSRLHCSERNAFSFDKDVNKSPLIKFAYFLAPFLYRISPNPVIAVSLGVALDLIETTVVCPKNVINLPNPTLNDNYKTHIFLAPSHPWLSDKTKPVIVGLGRLAQQKGFSDLINAFALVREKIDSRLIIFGEGELRIKLQTQIDNLGLTDSVSLFGYVRAPMDEVHSADVFVLSSLFEGSPNALVEAMASRCKVVSTRCPCGPDEILIQGALGILVPVKSPNKLAEAIICSLLDADYDFENQLDKIERFTANNSASAYLSAMGIHGV | not soluble |
| MGSDKIHHHHHHMKVKWSRDFSIKNMQLDKQHELIFEITNLANDLALNIQDNNTQHKNDLKQILVKLFQYIKIHFKDEEKFMESIDFPLIEEHKKSHQILVEKTKELLEHSNDIVKMSQELSILTKDWILDHFANEDLWIANFTKKTLHLQEIHYTLEQYIKLKSIKQDLRAEKTYDYICNCSLRIHAVPQTIHQELVSKENTLKCEKCGQILVHLDYFDLNQNFEKFNAIFEDALQNHHFTTQENDMRGGG | not soluble |
| MGSDKIHHHHHHMKVSSKPSLTWEILTSRADRPRQEVFPFNTGRCEYFYSARYALAAALDALKLSPQQSILMPSYNCWVEVEPAVRSGAKIDWYRVKTDFSIDEDDLLARIRPETAAIFVIHYLGFPQRLENIHRICTERGIVLIEDCAHALLSNDGDVPLGLTGDMAIFSIRKTVPIPDGGCLLINNPAFSVNRPRRVRPNLFATYFVVSEMLARGSTTEPKRVNQMAYSCNFAFARLARMGLRGIHKIFQDHGDYLVYPSGNHFNEQVKHWMMSDVSSAILRGTEFQRIKERRRANFLHLLDKLIMNDRITLPILSLPEGVSPLFFPVIVQDRDRVYRQLKDQGLSGHDWWGDFHPAVPWDKYPDAVYLKTNVFGFPVHQDLSRESLGIMLAEFSQCL | not soluble |
| MGSDKIHHHHHHMKYIINHSNDTAFNIALEEYAFKHLLDEDQIFLLWINKPSIIVGRHQNTIEEINRDYVRENGIEVVRRISGGGAVYHDLNNLNYTIISKEDENKAFDFKSFSTPVINTLAQLGVKAEFTGRNDLEIDGKKFCGNAQAYINGRIMHHGCLLFDVDLSVLANALKVSKDKFESKGVKSVRARVTNIINELPKKITVEKFRDLLLEYMKKEYPEMTEYVFSEEELAEINRIKDTKFGTWDWNYGKSPEFNVRRGIKFTSGKVEVFANVTESKIQDIKIYGDFFGIEDVAAVEDVLRGVKYEREDVLKALKTIDITRYFAGISREEIAEAVVG | soluble |
| MGSDKIHHHHHHMKYLPLYPILARYPFLRIASRVFSFNIEDELRKFLDTVEAAKRIVDKAIDGRVEYDRFTDESEFFCLGCEENCYDCQKRGTLEGCDLCMGCFENCSLYYPREAVERFYTNAKLSLLTYIASRMIVSAMEDWVRMRYAVNEASYYSRLLREDVEESGKEPIVRLVAIDLGAKLKGWKMHVSTFVRVSARIKDDKWRLVNRKLRNGWVETTKAEVLRGLEELLRMKLFEKVPVSEAVSEAVRELSRKAKRESEKFAMDLGEVDLNCLPPCMREILSELQRGMNIPHTARFAITSFLLNIGMTVDEIIALFKSAPDFDDEKTRYQVEHIAGERGKGAEYTSPSCDTMRTYSNCVADCRVSHPLIYYKKCKSKS | not soluble |
| MGSDKIHHHHHHMKYPNETSGTADYTVIKGLVTSNGDTGHDSIALDTATQLTAEDVKHFRDYGFSIVGRYLTGTVGTDYKPKNLTSTEIKTILDGGMKFFPIYEDGGYVESYFTASQGQKDAQTAIKTALDLELPAGTVIYFAVDVDFQDGDIDGTVIPYIKAIQNILSQSIYKTGIYGTRNVCLHAERVGIGFSFVANMSYGWSGNLGFKMPDNWAFDQFVEYPIYGIDIDQTASSGLDKGISGVAQTTPEVQTGYLANQLLSVFPDYHNLFGTINWTVSAPEQHLSTPIADYYITLEDKWIATVVDDKTGTLTIQDAKMLNQTADVMKQFESAMSSYDIGDLSGAFNKLAPMIGNGAIKAGLAIRDGMVGFKIAIEGSFESSTSSSSVEGKYTLTLETYIHRDQVPKNAYDPVYQPVTEPNPVFAVDLGKVATTVVIGLLVSSMLPEVGGGAALVELFNVVKTIFAVA | not soluble |
| MGSDKIHHHHHHMKYTVIICDDNLNHASNLALKIGIAAMVDSGDNPDTEIDLEIGKIAQNALDVIEYLKENPISGGIYFLDIELSQEKNAMNGIDLAEQVKQLDPRAQIIFVTAYNEYMEMTFERRIGAVDYINKSNPNLQNRLNETLQDTVRRISKENYSKKMTFSYRLGRIIKNINIDDIYYISTTKAPHKLKLVKNDGTAEFAGDIKSVDKQNEFLTKVSQSYLVNPKNIVQINLKKKEITLSNGDAIKFSRRFTHVMKDMINTYNLKQNNYQI | not soluble |
| MGSDKIHHHHHHMLAERLVSDYDVEVLTTCVRDVATGENIYPEGEEEWNGVVIRRFRTNPVQREKERYFAKKAKPARKLRQFLFKLGILKYLSYLIPVWSYKHDDEVQAMKSDKFYSSALNDYIRDHIDEYKAFIAMSSDYVTFYYTALYAGRKTIAIPTMHNMGISFRSVLTSAFSKIAYVGFNTGEEQRLAENILGKALGAHGILSVGIEESLSADWAMTKEKFQLPEKYLLYIGRITPKKIHRLLTYFVNYKKKYSDSTLRLVLVGGLAMERFEHPDVIYTGFVSDEEKMSILQHADIVVNPSRYESLSLILLEAMSQKRPMLVNGHCKVLKEHCLKSDFASFYYMNNRGFNQALRRIEQSEDLREEMGEKGVFYVKSNYNWTLIMGRLKQAIKSI | not soluble |
| MGSDKIHHHHHHMLCSRYFTSSLFLWGEALPTLLEEFLNEVEKMLKNQVNTRRIHQLLKELDDPLLENKDLEEKLQAFLDYVKEIPNLPEARKRYRIQKSLEMIEKLRSWFLIDYLECSGEEVDLSTDIQYAKGVGPNRKKKLKKLGIETLRDLLEFFPRDYEDRRKIFKLNDLLPGEKVTTQGKIVSVETKKFQNMNILTAVLSDGLVHVPLKWFNQDYLQTYLKQLTGKEVFVTGTVKSNAYTGQYEIHNAEVTPKEGEYVRRILPIYRLTSGISQKQMRKIFEENIPSLCCSLKETLPERILEKRKLLGVKDAYYGMHFPKTFYHLEKARERLAYEELFVLQLAFQKIRKEREKHGGIPKKIEGKLAEEFIKSLPFKLTNAQKRAHQEIRNDMISEKPMNRLLQGDVGSGKTVVAQLAILDNYEAGFQTAFMVPTSILAIQHYRRTVESFSKFNIHVALLIGATTPSEKEKIKSGLRNGQIDVVIGTHALIQEDVHFKNLGLVIIDEQHRFGVKQREALMNKGKMVDTLVMSATPIPRSMALAFYGDLDVTVIDEMPPGRKEVQTMLVPMDRVNEVYEFVRQEVMRGGQAFIVYPLIEESDKLNVKSAVEMYEYLSKEVFPEFKLGLMHGRLSQEEKDRVMLEFAEGRYDILVSTTVIEVGIDVPRANVMVIENPERFGLAQLHQLRGRVGRGGQEAYCFLVVGDVGEEAMERLRFFTLNTDGFKIAEYDLKTRGPGEFFGVKQHGLSGFKVADLYRDLKLLEWAREDVQEIDVEGIELPEEIKLIEVG | not soluble |
| MGSDKIHHHHHHMLDLKSYREKELASYDLDVELFNEFNFSVYNVMPLRKAFLISTDKGEKILKKIDYTIEEFKFVLAAVNYIKNENEFNRIIDFNKTQSGEYYCIKNGDLYCVMDMIEGKECEFSNPVDLSISSFGLGQLHSASEGFRYSKIASKNICGKMIKGFKRKKEEVNFLKKMVNLYESLNEFDEIFIKNVDYYLEQIDKSIDIMNKSQYYKLCSEEDKIVLCHHDLAHHNIIIKDEEAYFIDFDYAIIDLKVHDLSNIISKAAKVFNYSIDNSKIIISNYCKSNTLSKNEMEVLFGMLSFPEDFYEIVKSYYTKRKDWSNEEFINKMKRKMANEENRVEFLKNFKEDLKI | not soluble |
| MGSDKIHHHHHHMLDSSSGNAPDTHAAVDSAVLVSLDLNDSDSAENLEELRQLAASDRLAISAVVLGKRLRPDPATFAGSGKVDEIMGAVEQTGASLVIFNHDLSPAQQRNLEQRLRRRVIDRTSLILDIFAQRAKSHEGKLQVELAQLEHLATRLVRGWTHLERQKGGIGLRGPGETQLETDRRLLGKRVKVLKEKLAKFERQRALQRRARRRAQVMSVSLVGYTNAGKSTLFNRLTRGHTYVADQLFATLDATTRKLFIADRGPLVLSDTVGFIRDLPHTLVAAFRATLEETVQADLLLHVVDTSSSNRSEQIDEVNKVLKEIGADRIPQILVLNKTDLVDLPASSPGYQRDEYGRIVQVRLSAKTGEGLEFINLALSEALGERAALREPDNQSEAQDITSGYH | not soluble |
| MGSDKIHHHHHHMLEGIFDINHVFDEEGIKTLKRFGWDGSVAVQNHNEYSEEKINTAVEYGENCEFKVYSGVKISTKNQNEMEKAVKKYRNKVDILLVEGGDVKINRRVLEMNDVDILSTPELNRMDNGLDHILARLGSTNRVAVELNFGNLLKSKNYDRSKILWAFQRNLKLSKKYDTPVVISSGANDIYGIKAPGDLRGFLNTVADPLYSKKIIETTSKIIDYRLYLKNKNVLMPGLEIVEE | not soluble |
| MGSDKIHHHHHHMLEIIMSSIKSRQLTHSALASNIDIHDVTHFLLELDALKRVNRRSYVTGANRLENSAEHSWHLAMACWSIAELFELDVNQEKLLKMALVHDLGEIDAGDTFLYADTRGDAHLEERAGIARLQGERGNGISNLNEIWEEQETGSSTETQLLKVVDRLLPFLLNLNTNGKTWIELSVTRSQVSEAHAFIKDSFPSIHDWLAAQIEFATQQGWLIDT | not soluble |
| MGSDKIHHHHHHMLEQSIEAFKACVNDWLSAIAQLGEKPNRGNLHRFAYRAIRDKYPQLHSNVVQDAMNLAIEIYRSWLKNGGEFPKFRSDVIYFKGVDVRIENNGLVVPLMGRRVYLPLYVPKKYKKYLQYKHGRVIIKRVDKDWYALVSVNVPEKEPIKPVGTIGVDLGYYNLLVASDEKGRVVMRVQGDILIRHKEHMERLTARRQERLMKKFGIYARTNHKDRRFVNDLNHKIAKALVLKAKQLNRAIVLEKLKGLKKQRRPKLLRKILHLWSYADLIAKIVYKAKLYGVPVIFVSPRGTSKTCSNCGYYVRTFKDDRVFRCPKCGFVADRDYNASINIAKKGLEELRKRTFLPTLKDEASSPQGW | not soluble |
| MGSDKIHHHHHHMLFPDLANKIVREVRRLIKENIIIINIQGVIIASTDIERIGQFHEGALRCAKQKKTVIITKEDERRLQGVKAGMNLPLLFHDEVIGVIGITGEPENISQYGEILRKMTELLIHENYFLEQLELEHRSYEAFVFDWLQNTDWSPSFLDRAKTLGIDLYKKKQLILFSIDRNDTMLQRKVWQHVRNLLTKEHLFIRWGNDRFILFTATNSKEQTYQFLKRLKQDCETLFSVPLYIGIGQSVTPSNMNLSYEQALQALSVSLETKNIVFNEDLRLEMCLQDISAETREQFLKRTIENLLSSPELMHTLRLFIDYNQSYKQTAEQLHIHINTLHYRLKKIEEYTGLDPKQFKDLNILYFSLLLLDNHTKKNDKTD | not soluble |
